Reference: article PMC6128628, “Impaired hepatic amyloid-beta degradation in Alzheimer’s disease” (PLoS ONE, 2018)

Test: Degradation of fluorescein-labeled Aβ spiked into human liver homogenates (ELISA)
Format: in vitro ADME
Conditions: fluorescein-labeled peptide from DMSO stock diluted to 0.4 μg/ml, 5 μl added, 37°C, stopped on ice with protease inhibitor cocktail
Protocol: Frozen liver (~500 mg) was ground into a powder in liquid nitrogen with a mortar and pestle then transferred to 8 ml sucrose lysis buffer (SLB: 20 mM HEPES, 1.5 mM magnesium chloride, 10 mM potassium chloride, 40 mM sucrose, 1 mM EDTA, 2% glycerol, 0.5% sodium deoxycholate, 1% Tergitol, pH 7.9) at 4°C. The tissue was then homogenized using an Omni TH tissue grinder (Kennesaw, GA) at 4°C. The homogenates were centrifuged at 15,000 x g in a Type 50.4 Ti rotor (Beckman Coulter, Brea, CA) for 20 min at 4°C and the supernatant was collected. Total protein was determined with Pierce’s Micro BCA protein assay kit (Thermo Fisher Scientific, Waltham, MA).
Lyophilized fluorescein-labeled Aβ40 and Aβ42 peptides (FAβ, rPeptide, Bogart, GA) were reconstituted in DMSO to 1 mg/ml and stored at 4°C [22]. For degradation experiments, the stock peptides were diluted to 0.4 μg/ml (1:2500) in sucrose lysis buffer (SLB), 5 μl of either FAβ40 or FAβ42 was added to the reaction mixtures and samples were incubated at 37°C for 1 h or 2 h (for ELISA and Western experiments). In addition, two 0 h incubations were included: one liver homogenate with 5 μl of FAβ as well as a negative control sample without FAβ. Reactions were terminated by placing homogenates on ice and by adding SLB with complete protease inhibitor cocktail (PIC, Roche, Mannheim, Germany). Reactions used for Western blots were stopped by 2XLDS sample buffer (Invitrogen) containing 100 mM dithiothreitol.
All 4 sample sets were analyzed in triplicate with Aβ40 and Aβ42 ELISAs (Invitrogen; catalog # KHB3481 and KHB3441 following the manufacturer’s instructions. Similar sets of samples were analyzed for FAβ by Western blot (as described below) with an anti-fluorescein antibody (Table 2) which binds to both to both free and bound fluorescein.

## Aβ40: synthetic fluorescein-labeled amyloid beta 40 peptide (rPeptide), spiked into liver homogenates
Postmortem human liver homogenate from Alzheimer's disease subjects (n = 8) in sucrose lysis buffer pH 7.9, 1 h, Aβ40 ELISA in triplicate, p<0.05 vs ND
  Aβ degraded within an hour, AD group: 23%
Postmortem human liver homogenate from non-demented controls (n = 8) in sucrose lysis buffer pH 7.9, 1 h, Aβ40 ELISA in triplicate, p<0.05 vs AD
  Aβ degraded within an hour, ND group: Thirty-four

## Aβ42: synthetic fluorescein-labeled amyloid beta 42 peptide (rPeptide), spiked into liver homogenates
Postmortem human liver homogenate from Alzheimer's disease subjects (n = 8) in sucrose lysis buffer pH 7.9, 2 h, Aβ42 ELISA in triplicate, p = 0.07 vs ND
  Aβ degraded within 2 hours, AD group: 80%
Postmortem human liver homogenate from non-demented controls (n = 8) in sucrose lysis buffer pH 7.9, 2 h, Aβ42 ELISA in triplicate, p = 0.07 vs AD
  Aβ degraded within 2 hours, ND homogenates: 94%
